The supplement of paper PMC9732359
± gives the uncertainty stated by the source.

Assay: protein stability index of a GFP-peptide fusion (yeast GPS) (PSI 1-4); higher = more stable; sorted into four equal gates, so the index is relative within each strain
Procedure, shortened: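 Plasmids isolated from each sorting gate were PCR-amplified and Illumina-sequenced, and barcodes assigned the reads to strains. The gates, four of equal size, were set by GFP/Cherry fluorescence ratio on mid-log cultures in leucine-free medium. These cultures were yeast carrying a pooled library of tiled 17-residue yeast protein peptides fused downstream of GFP on a plasmid that also expresses Cherry. The protein stability index is the sum of every gate's read frequency times its gate number.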

Row | Sequence | protein stability index (doa10∆) | protein stability index (pdr5∆) | protein stability index (san1∆) | protein stability index (ubr1∆)
1 | MSYVVRILSTLDRELLK [RPT3] | 2.31 ± 0.098 | 2.24 ± 0.1 | 2.55 ± 0.057 | 2.88 ± 0.094
2 | TKFSNPAIPPVIDLEKI [BRR2] | 2.57 ± 0.068 | 2.75 ± 0.068 | 2.66 ± 0.063 | 2.65 ± 0.052
3 | AHRNGIKKPKTYKYPSL [RPL29] | 3.42 ± 0.11 | 2.96 ± 0.15 | 3.19 ± 0.28 | 2.95 ± 0.1
4 | EEAGSPLVYRHELITNI [RPB9] | 3.17 ± 0.076 | 3.39 ± 0.058 | 3.28 ± 0.049 | 3.38 ± 0.06
5 | YKGMASNDERIVKRLYE [BRR2] | 3.33 ± 0.085 | 3.47 ± 0.083 | 3.31 ± 0.052 | 3.51 ± 0.047
6 | LDLKECYQFAEYLFKPQ [ARP7] | 3.05 ± 0.084 | 3.06 ± 0.08 | 3.03 ± 0.063 | 2.97 ± 0.059
7 | TRAQYLAFAKLVHSEYL [SRP68] | 1.58 ± 0.08 | 1.87 ± 0.063 | 1.47 ± 0.094 | 1.79 ± 0.052
8 | NYEDVGRFLRVPKEGLF [BRR2] | 3.42 ± 0.076 | 3.5 ± 0.11 | 3.42 ± 0.078 | 3.49 ± 0.064
9 | KSKAEELTQVPSARQKY [UBP6] | 2.19 ± 0.14 | 2.81 ± 0.12 | 2.38 ± 0.14 | 2.37 ± 0.16
10 | IDIINKLILHAIHIFES [YML103C/NUP188] | 1.5 ± 0.053 | 1.56 ± 0.058 | 1.42 ± 0.065 | 1.38 ± 0.034
11 | WVKKFKWAGIKTRKFVF [CYT1] | 1.14 ± 0.12 | 1.51 ± 0.1 |  | 1.27 ± 0.074
12 | MNECIADQDMEDEDMVD [ESC2] | 3.18 ± 0.072 | 3.35 ± 0.11 | 3.3 ± 0.048 | 3.08 ± 0.058
13 | KVLLPSINISCVQLIKC [SWI1] | 1.27 ± 0.064 | 1.47 ± 0.051 | 1.17 ± 0.18 | 1.49 ± 0.051
14 | RGKNEIIQNAQRDAVTL [RPO21] | 3.3 ± 0.067 | 2.99 ± 0.078 | 3.23 ± 0.064 | 3.04 ± 0.066
15 | FEVEMILMQQQMMARMA [SRP54] | 1.17 ± 0.12 | 1.19 ± 0.076 | 2.34 ± 0.15 | 1.73 ± 0.27
16 | ASISLPNHIPSVNPSNK [SWP82] | 2.99 ± 0.1 | 3.05 ± 0.069 | 3.01 ± 0.075 | 3.12 ± 0.054
17 | TKIDMPIKNRKNDTHYL [BRN1] | 3.04 ± 0.07 | 3.05 ± 0.075 | 2.93 ± 0.055 | 2.94 ± 0.053
18 | TIEQSPRMIELMEFLCV [ECM29] |  |  | 3.11 ± 0.14 | 3.25 ± 0.13
19 | KAKVEEMNNIIAASRRH [RPL36A] | 2.85 ± 0.084 | 3.25 ± 0.075 | 3.19 ± 0.068 | 3.13 ± 0.072
20 | DIENKEEEYDETHETNI [YAR002W/NUP60] | 3.34 ± 0.071 | 3.21 ± 0.087 | 3.42 ± 0.083 | 3.33 ± 0.064
21 | LIIIEKKQKLIEEQDKK [ITC1] | 3.12 ± 0.13 | 2.9 ± 0.21 | 2.96 ± 0.17 | 2.89 ± 0.084
22 | KTRGPFHFRAPSRIFYK [RPL16A] | 2.99 ± 0.08 | 2.6 ± 0.062 | 2.56 ± 0.061 | 2.77 ± 0.057
23 | MAKDIEISASESKFILE [RRP45] | 3.17 ± 0.092 | 3.06 ± 0.14 | 2.99 ± 0.064 | 3.02 ± 0.093
24 | LLSFVLGVVFGRGGSGW [YML031W/NDC1] | 2.33 ± 0.068 | 2.28 ± 0.067 | 2.31 ± 0.077 | 2.37 ± 0.096
25 | DVSRVAAVETLYQDMAA [RPL20A] | 2.66 ± 0.066 | 2.67 ± 0.08 | 2.37 ± 0.089 | 2.09 ± 0.071
26 | PEYAKVGDFLLQYANNA [SIN4] | 2.4 ± 0.085 | 2.55 ± 0.069 | 2.5 ± 0.066 | 1.97 ± 0.044
